Common to all, as to settings: both partners purified
The target of one assay is T1, Flag-tagged hSpt16 (human, UniProt Q9Y5B9 1-1047).
T1 construct: human SUPT16H (hSpt16); methods print 'Flag-hSpt16', legends 'Spt16-FLAG'; also called Spt16-FLAG; Flag-hSpt16; source: Sf9 cells (pFastBac-FLAG-hSpt16), purified; also co-expressed with untagged hSSRP1 in Sf9, in cell extract
Nature of the assay: pull-down; Ni-NTA beads, His6-tagged NDF (WT, truncates or mutants; 40 pmol) as bait with 20 pmol Flag-tagged hSpt16 or FACT in 300 µl of 10 mM Tris-HCl pH 7.5, 200 mM NaCl, 0.2% Nonidet P-40, 10% glycerol, 4 °C 3 h; SDS-PAGE, silver staining.

Assay [1] concerns the target T2, Flag-tagged FACT complex (Flag-hSpt16 + untagged hSSRP1) (human, UniProt Q9Y5B9 1-1047; Q08945 1-709).
T2 construct: human SUPT16H (hSpt16); human SSRP1, untagged; complex formed beforehand by co-expression; also called FACT-FLAG; hFACT; source: Sf9 cells, co-expressed, purified (anti-Flag M2 agarose, 3x Flag peptide elution)
Nature of the assay: co-sedimentation; sedimentation assay of condensates: NDF and FACT mixed in a 100 mM NaCl buffer without PEG, 10 min at 22 °C, 17,200g 10 min; supernatant and pellet on SDS-PAGE, Coomassie.

In assay [2] the target is T3, FACT complex used as prey in the FLAG pull-down with NDF-Flag (his-FACT) (human, UniProt Q9Y5B9 1-1047; Q08945 1-709).
T3 construct: human SUPT16H (hSpt16); human SSRP1; the his-tagged subunits are surmised because the bait was held on Flag M2 beads; source: Sf9 cells (Bac-to-Bac), his-FACT subunits expressed separately, purified similar to his-hNDF
In words: pull-down; Flag M2 beads, NDF-Flag as bait; 10 mM Tris-HCl pH 7.5, 200 mM NaCl, 0.2% Nonidet P-40, 10% glycerol, 4 °C 3 h; SDS-PAGE, silver staining.

For assay [3], the target named is T4, His6-hSpt16 (recombinant his-tagged Spt16 subunit of FACT) (human, UniProt Q9Y5B9 1-1047).
T4 construct: human SUPT16H (hSpt16); The His6 tag was inserted into pFastBac-FLAG-hSpt16; also called his-FACT subunit; source: Sf9 cells (Bac-to-Bac), expressed separately, purified similar to his-hNDF
Described as above.

This is an account of results in article PMC12611769, “Phase-separated NDF−FACT condensates facilitate transcription elongation on chromatin” (Nature Cell Biology, 2025).

T1 sequence (Q9Y5B9 whole entry): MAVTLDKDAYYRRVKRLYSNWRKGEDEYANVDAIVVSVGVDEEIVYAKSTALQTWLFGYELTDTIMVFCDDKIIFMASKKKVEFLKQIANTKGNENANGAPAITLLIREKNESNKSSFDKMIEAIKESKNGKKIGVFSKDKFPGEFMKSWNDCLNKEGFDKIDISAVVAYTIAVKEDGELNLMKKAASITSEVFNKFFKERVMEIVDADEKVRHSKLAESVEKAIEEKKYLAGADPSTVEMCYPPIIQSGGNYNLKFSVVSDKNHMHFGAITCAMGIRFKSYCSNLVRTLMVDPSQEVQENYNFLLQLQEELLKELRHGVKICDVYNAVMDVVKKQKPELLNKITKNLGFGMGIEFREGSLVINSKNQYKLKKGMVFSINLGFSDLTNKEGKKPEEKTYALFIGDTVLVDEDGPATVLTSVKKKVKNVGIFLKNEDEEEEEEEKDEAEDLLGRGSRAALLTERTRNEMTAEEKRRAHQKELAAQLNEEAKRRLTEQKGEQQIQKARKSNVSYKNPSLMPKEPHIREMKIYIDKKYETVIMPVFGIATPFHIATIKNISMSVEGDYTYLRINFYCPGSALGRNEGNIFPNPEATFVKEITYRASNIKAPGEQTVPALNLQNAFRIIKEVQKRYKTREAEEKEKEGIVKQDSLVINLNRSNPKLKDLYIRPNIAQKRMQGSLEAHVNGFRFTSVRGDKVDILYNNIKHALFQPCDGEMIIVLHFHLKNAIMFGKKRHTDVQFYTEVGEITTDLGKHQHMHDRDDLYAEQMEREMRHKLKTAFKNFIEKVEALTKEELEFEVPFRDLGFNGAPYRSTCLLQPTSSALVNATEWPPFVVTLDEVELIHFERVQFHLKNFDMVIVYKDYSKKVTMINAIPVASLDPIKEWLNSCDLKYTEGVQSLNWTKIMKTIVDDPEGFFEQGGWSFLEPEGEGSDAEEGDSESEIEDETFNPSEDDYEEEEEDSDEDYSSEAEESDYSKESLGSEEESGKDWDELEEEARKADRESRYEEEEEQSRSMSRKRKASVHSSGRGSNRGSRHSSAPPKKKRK
T4 sequence (Q9Y5B9 whole entry): as above
T2 sequence (Q9Y5B9 whole entry, chain 1 of 2): as the sequence (Q9Y5B9 whole entry) above
T2 sequence (Q08945 whole entry, chain 2 of 2): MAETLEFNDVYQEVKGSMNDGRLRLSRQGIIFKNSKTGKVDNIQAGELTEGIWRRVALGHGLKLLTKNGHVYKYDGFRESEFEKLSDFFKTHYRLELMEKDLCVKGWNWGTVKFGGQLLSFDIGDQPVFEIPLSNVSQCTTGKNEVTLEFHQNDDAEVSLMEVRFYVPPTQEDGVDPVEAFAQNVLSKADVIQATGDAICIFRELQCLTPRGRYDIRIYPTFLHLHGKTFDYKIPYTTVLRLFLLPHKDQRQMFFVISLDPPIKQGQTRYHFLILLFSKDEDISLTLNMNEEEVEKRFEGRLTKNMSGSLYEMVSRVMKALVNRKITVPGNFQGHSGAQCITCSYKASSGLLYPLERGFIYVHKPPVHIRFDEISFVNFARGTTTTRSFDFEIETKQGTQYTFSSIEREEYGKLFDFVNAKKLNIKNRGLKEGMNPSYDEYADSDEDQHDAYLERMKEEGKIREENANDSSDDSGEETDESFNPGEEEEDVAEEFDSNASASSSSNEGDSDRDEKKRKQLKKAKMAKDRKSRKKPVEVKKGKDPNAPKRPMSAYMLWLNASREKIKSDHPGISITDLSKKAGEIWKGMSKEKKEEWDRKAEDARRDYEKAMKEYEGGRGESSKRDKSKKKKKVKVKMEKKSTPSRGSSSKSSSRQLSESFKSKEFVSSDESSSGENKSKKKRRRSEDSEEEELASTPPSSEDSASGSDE
T3 sequence (Q9Y5B9 whole entry, chain 1 of 2): as the sequence (Q9Y5B9 whole entry) above
T3 sequence (Q08945 whole entry, chain 2 of 2): as the sequence (Q08945 whole entry, chain 2 of 2) above

B1: NDF_K161A, full-length, His6-tagged (natural protein, human, UniProt Q49A26 1-553, looked up)
chain: MAAVSLRLGDLVWGKLGRYPPWPGKIVNPPKDLKKPRGKKCFFVKFFGTEDHAWIKVEQLKPYHAHKEEMIKINKGKRFQQAVDAVEEFLRRAKGKDQTSSHNSSDDKNRRNSSEERSRPNSGDEKRKLSLSEGKVKKNMGEGKKRVSSGSSERGSKSPLARAQEQSPRKRGRPPKDEKDLTIPESSTVKGMMAGPMAAFKWQPTASEPVKDADPHFHHFLLSQTEKPAVCYQAITKKLKICEEETGSTSIQAADSTAVNGSITPTDKKIGFLGLGLMGSGIVSNLLKMGHTVTVWNRTAEKCDLFIQEGARLGRTPAEVVSTCDITFACVSDPKAAKDLVLGPSGVLQGIRPGKCYVDMSTVDADTVTELAQVIVSRGGRFLEAPVSGNQQLSNDGMLVILAAGDRGLYEDCSSCFQAMGKTSFFLGEVGNAAKMMLIVNMVQGSFMATIAEGLTLAQVTGQSQQTLLDILNQGQLASIFLDQKCQNILQGNFKPDFYLKYIQKDLRLAIALGDAVNHPTPMAAAANEVYKRAKALDQSDNDMSAVYRAYIH
notes: human NDF (Glyr1), full-length, K161A; source: bacterial expression (pET21b), purified
As for B1, the binding result with Flag-tagged hSpt16 is “binds”.

B2: NDF_R162A, full-length, His6-tagged (natural protein, human, UniProt Q49A26 1-553, looked up)
chain: MAAVSLRLGDLVWGKLGRYPPWPGKIVNPPKDLKKPRGKKCFFVKFFGTEDHAWIKVEQLKPYHAHKEEMIKINKGKRFQQAVDAVEEFLRRAKGKDQTSSHNSSDDKNRRNSSEERSRPNSGDEKRKLSLSEGKVKKNMGEGKKRVSSGSSERGSKSPLKAAQEQSPRKRGRPPKDEKDLTIPESSTVKGMMAGPMAAFKWQPTASEPVKDADPHFHHFLLSQTEKPAVCYQAITKKLKICEEETGSTSIQAADSTAVNGSITPTDKKIGFLGLGLMGSGIVSNLLKMGHTVTVWNRTAEKCDLFIQEGARLGRTPAEVVSTCDITFACVSDPKAAKDLVLGPSGVLQGIRPGKCYVDMSTVDADTVTELAQVIVSRGGRFLEAPVSGNQQLSNDGMLVILAAGDRGLYEDCSSCFQAMGKTSFFLGEVGNAAKMMLIVNMVQGSFMATIAEGLTLAQVTGQSQQTLLDILNQGQLASIFLDQKCQNILQGNFKPDFYLKYIQKDLRLAIALGDAVNHPTPMAAAANEVYKRAKALDQSDNDMSAVYRAYIH
notes: human NDF (Glyr1), full-length, R162A; source: bacterial expression (pET21b), purified
For B2, the binding result with Flag-tagged hSpt16 is “binds”.

B3: His6-hNDF, full-length wild type (natural protein, human, UniProt Q49A26 1-553, looked up)
chain: MAAVSLRLGDLVWGKLGRYPPWPGKIVNPPKDLKKPRGKKCFFVKFFGTEDHAWIKVEQLKPYHAHKEEMIKINKGKRFQQAVDAVEEFLRRAKGKDQTSSHNSSDDKNRRNSSEERSRPNSGDEKRKLSLSEGKVKKNMGEGKKRVSSGSSERGSKSPLKRAQEQSPRKRGRPPKDEKDLTIPESSTVKGMMAGPMAAFKWQPTASEPVKDADPHFHHFLLSQTEKPAVCYQAITKKLKICEEETGSTSIQAADSTAVNGSITPTDKKIGFLGLGLMGSGIVSNLLKMGHTVTVWNRTAEKCDLFIQEGARLGRTPAEVVSTCDITFACVSDPKAAKDLVLGPSGVLQGIRPGKCYVDMSTVDADTVTELAQVIVSRGGRFLEAPVSGNQQLSNDGMLVILAAGDRGLYEDCSSCFQAMGKTSFFLGEVGNAAKMMLIVNMVQGSFMATIAEGLTLAQVTGQSQQTLLDILNQGQLASIFLDQKCQNILQGNFKPDFYLKYIQKDLRLAIALGDAVNHPTPMAAAANEVYKRAKALDQSDNDMSAVYRAYIH
notes: human nucleosome destabilizing factor (NDF; Glyr1), full-length; vector name has His6 before hNDF, a legend prints 'NDF-his'; also called NDF-his; His6-tagged NDF-WT; source: bacterial expression (pET21b-His6-hNDF), purified as previously described
With B3, the binding result (in assay [1]; with Flag-tagged hSpt16) was “binds” each time.

B4: hNDF-FLAG (recombinant NDF-Flag) (natural protein, human, UniProt Q49A26 1-553, looked up)
chain: MAAVSLRLGDLVWGKLGRYPPWPGKIVNPPKDLKKPRGKKCFFVKFFGTEDHAWIKVEQLKPYHAHKEEMIKINKGKRFQQAVDAVEEFLRRAKGKDQTSSHNSSDDKNRRNSSEERSRPNSGDEKRKLSLSEGKVKKNMGEGKKRVSSGSSERGSKSPLKRAQEQSPRKRGRPPKDEKDLTIPESSTVKGMMAGPMAAFKWQPTASEPVKDADPHFHHFLLSQTEKPAVCYQAITKKLKICEEETGSTSIQAADSTAVNGSITPTDKKIGFLGLGLMGSGIVSNLLKMGHTVTVWNRTAEKCDLFIQEGARLGRTPAEVVSTCDITFACVSDPKAAKDLVLGPSGVLQGIRPGKCYVDMSTVDADTVTELAQVIVSRGGRFLEAPVSGNQQLSNDGMLVILAAGDRGLYEDCSSCFQAMGKTSFFLGEVGNAAKMMLIVNMVQGSFMATIAEGLTLAQVTGQSQQTLLDILNQGQLASIFLDQKCQNILQGNFKPDFYLKYIQKDLRLAIALGDAVNHPTPMAAAANEVYKRAKALDQSDNDMSAVYRAYIH
notes: human nucleosome destabilizing factor (NDF; Glyr1); source: bacterial expression (pET21b-hNDF-FLAG), purified as previously described
Take B4: the binding result in assay [2] and in assay [3] was “binds” throughout.
